Results as given in patent US20260042848A1 (BIOLEGEND, published 2026).
Where a chain is given by its changes, count along the chain named. Blank lines part the entries; values can stand above or below the binder they belong to.

How the values were obtained:
[1] = biological target: mGypa (mouse Glycophorin A) on transfected BA/F3 cells (mouse, UniProt P14220 1-168); experiment: flow cytometry on mGypa-transfected BA/F3 cells, anti-mouse IgG-APC secondary
[2] = biological target: T1, native human AXL on non-transfected human cell lines (A-431, A-549, HeLa, MDA-MB-231, NCI-H1299) (human, UniProt P30530 26-894); experiment: flow cytometry, PE conjugate on A-431, A-549, HeLa, MDA-MB-231 and NCI-H1299 cells
T1 construct: Endogenous AXL of carcinoma cell lines; also called human AXL receptor tyrosine kinase; AXL receptor
T1 sequence: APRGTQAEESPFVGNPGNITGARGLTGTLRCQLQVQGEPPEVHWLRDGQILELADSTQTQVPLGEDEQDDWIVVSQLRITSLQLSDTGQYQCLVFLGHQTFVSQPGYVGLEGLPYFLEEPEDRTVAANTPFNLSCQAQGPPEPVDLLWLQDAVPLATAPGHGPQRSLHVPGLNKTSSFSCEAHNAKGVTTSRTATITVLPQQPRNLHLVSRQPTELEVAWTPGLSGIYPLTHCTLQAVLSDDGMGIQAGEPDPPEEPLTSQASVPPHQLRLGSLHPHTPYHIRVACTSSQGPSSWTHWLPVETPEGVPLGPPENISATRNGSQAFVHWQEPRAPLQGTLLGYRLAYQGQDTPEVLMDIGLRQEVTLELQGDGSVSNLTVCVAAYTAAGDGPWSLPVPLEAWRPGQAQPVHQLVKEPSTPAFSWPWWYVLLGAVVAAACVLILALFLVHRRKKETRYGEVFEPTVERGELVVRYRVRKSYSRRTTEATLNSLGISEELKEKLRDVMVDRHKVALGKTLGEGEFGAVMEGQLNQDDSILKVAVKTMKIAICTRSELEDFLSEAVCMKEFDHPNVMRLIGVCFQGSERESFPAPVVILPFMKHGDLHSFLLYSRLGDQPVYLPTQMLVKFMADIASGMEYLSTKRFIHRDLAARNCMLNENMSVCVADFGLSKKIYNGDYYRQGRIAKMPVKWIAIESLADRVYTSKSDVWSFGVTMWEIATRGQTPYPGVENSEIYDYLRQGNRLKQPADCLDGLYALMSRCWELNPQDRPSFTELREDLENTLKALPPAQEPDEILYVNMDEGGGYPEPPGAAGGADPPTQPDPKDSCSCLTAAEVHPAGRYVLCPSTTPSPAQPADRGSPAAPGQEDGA
Source text: In contrast, the cell lines used for FIGS. 2F-2G (TH-29 and Jurkat, respectively) are known to be negative for human AXL and were thus used as negative controls.
Once cells reached 80% confluency, cells were detached from the flask using 0.25% Trypsin-0.1% EDTA and suspended in cell staining buffer. […] Cells were washed with FACS buffer and analyzed on a BD Canto II flow cytometer.

[3] = biological target: T2, hAXL recombinant protein (Sino Biological, Catalog #10279-H08H) (human, UniProt P30530 26-449); experiment: pre-incubation of antibody with soluble recombinant human AXL, then flow cytometry on human AXL-transfected BA/F3 cells (FIG. 3B)
T2 construct: Bought soluble protein; also called human AXL recombinant protein; recombinant human AXL protein
T2 sequence: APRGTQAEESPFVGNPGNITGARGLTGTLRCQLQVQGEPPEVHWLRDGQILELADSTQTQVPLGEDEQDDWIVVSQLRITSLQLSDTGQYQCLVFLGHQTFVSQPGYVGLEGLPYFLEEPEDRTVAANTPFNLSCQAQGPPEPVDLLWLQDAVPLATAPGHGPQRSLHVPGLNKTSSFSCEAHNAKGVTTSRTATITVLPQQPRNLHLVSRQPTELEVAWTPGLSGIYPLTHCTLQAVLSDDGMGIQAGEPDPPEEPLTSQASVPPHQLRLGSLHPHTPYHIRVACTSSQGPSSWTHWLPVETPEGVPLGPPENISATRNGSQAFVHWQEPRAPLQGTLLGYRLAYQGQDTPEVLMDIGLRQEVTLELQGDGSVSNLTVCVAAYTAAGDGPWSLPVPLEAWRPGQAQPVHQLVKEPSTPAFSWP
Experimental: (§1) In each case, cell populations of interest were selected by setting and displaying gates (for visual comparison purposes) based on the corresponding isotype control.
(§2) PE conjugated mIgG1 and mIgG2a, or PU-IgG1 were used as controls. After incubation, 2×10⁶/100 μL of huAXLΔcyto-IG transfected BA/F3 cells were added to each tube, and cells were acquired on a BD Canto II and corresponding data was analyzed by FlowJo.

[4] = biological target: T3, Human AXLΔcyto-IG (human AXL lacking the cytoplasmic domain) on transfected BA/F3 cells (human, UniProt P30530 26-472, limits assumed); experiment: flow cytometry on Human AXLΔcyto-IG transfected BA/F3 cells, anti-mouse IgG-APC secondary
T3 construct: GFP is co-expressed from the vector; also called huAXLΔcyto-IG; human AXL transfected BA/F3 cells
T3 sequence: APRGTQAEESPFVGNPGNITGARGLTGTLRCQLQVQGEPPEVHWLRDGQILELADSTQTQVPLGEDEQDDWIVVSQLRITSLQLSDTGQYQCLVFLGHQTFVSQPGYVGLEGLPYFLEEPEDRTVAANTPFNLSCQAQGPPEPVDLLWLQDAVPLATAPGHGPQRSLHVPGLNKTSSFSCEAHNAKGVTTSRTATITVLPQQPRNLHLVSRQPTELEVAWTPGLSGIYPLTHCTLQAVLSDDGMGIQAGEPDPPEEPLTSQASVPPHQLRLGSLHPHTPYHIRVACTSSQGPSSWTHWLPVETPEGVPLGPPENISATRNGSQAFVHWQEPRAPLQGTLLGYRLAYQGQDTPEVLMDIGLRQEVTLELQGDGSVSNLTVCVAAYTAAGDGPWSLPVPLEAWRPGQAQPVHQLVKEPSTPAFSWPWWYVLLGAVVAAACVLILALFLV
Experimental: (§3) FIG. 1A depicts surface staining on BA/F3 cells transfected with human AXL, and FIG. 1B depicts surface staining on BA/F3 cells transfected with mGypa (mouse Glycophorin A) as a control. BA/F3 cells (IL-3 dependent mouse pro-B cell line) were used to eliminate the possibility of human proteins being expressed. The transfection efficiency was measured by GFP, which is used to visualize/identify cells that have been transfected and are expressing the vector. GFP (or FITC) on the x-axis identifies cells that are positive for GFP (i.e., cells that have been transfected). […] Cells were then washed and stained with a secondary antibody (anti-mouse IgG-APC).
(§4) In a first experiment, exemplary anti-human AXL antibodies were assessed on an IL-3 dependent murine pro B cell line (BA/F3, RIKEN CELL BANK, Cat #RCB4476), transfected with Human AXLΔcyto-IG (Ba/F3 cells were retrovirally transduced with human AXL lacking the cytoplasmic domain and GFP). […] Cells were then washed twice with FACS wash buffer and stained with anti-mouse IgG-APC secondary antibody for 15 minutes. Cells were washed with FACS buffer and analyzed on a BD Canto II and corresponding data was analyzed by FlowJo.

[5] = biological target: T2, hAXL recombinant protein (Sino …); experiment: pre-incubation of antibody with soluble recombinant human AXL, then flow cytometry on human AXL-transfected BA/F3 cells (FIG. 3D)
Experimental: as §1, §2

[6] = biological target: T3, Human AXLΔcyto-IG (human AXL lacking …); experiment: flow cytometry on human AXL-transfected BA/F3 cells, anti-mouse IgG-APC secondary
Experimental: as §3, §4

B1: AB3 (antibody, V domains shown)
VH: QIQLVQSGPELKKPGETVKISCKASGYTFTNYGMNWVKQAPGKGLKWMGWINTYIGEPTYADDFKGRFAFSLETSASTAYLQINNLKNEDMGTYFCARGTTFYAMDYWGQGTSVTVSS
VL: EIVLTQSPTTMAASPGEKITITCSASSSISSNYLHWYQQKPGFSPKLLIYRTSNLASGVPARFSGSGSGTSYSLTIGTMEAEDVATYYCQQGSSILTFGAGTKLELK
notes: Mouse hybridoma monoclonal; also called antibody 3; PE-AB3
binding result [1]: no binding (tested: 1 ug (printed 'lug'))

binding result [2]: binds
binding result [3]: binds
binding result [4]: binds
B2: AB5 (antibody, V domains shown)
VH: B1 VH with I55T, G92A, T100D, T101R
VL: B1 VL with A61T, L96F, A100S, L106I
notes: Mouse hybridoma monoclonal; also called antibody 5; PE-AB5
binding result [1]: no binding (tested: 1 ug (printed 'lug'))

binding result [2]: binds
binding result [3]: binds
binding result [4]: binds
B3: AB6 (antibody, V domains shown)
VH: EVNLVESGGGLVQPGGSLKLSCATSGFTFSDYYMYWVRQTPEKRLEWVAYISNGGGSTYYPDTVKGRFTISRDNAKNTLYLQMSRLKSEDTAMYYCARLHFYAMDYWGQGTSVTVSS
VL: DIVMTQSHKFMSTSVGDRVSITCKASQDVSTAVAWYQQKPGQSPKLLIYWASTRHTGVPDRFTGSGSGTDYTLTISSVQAEDLALYYCQQHYNTPFTFGSGTKLEIK
notes: Mouse hybridoma monoclonal; also called antibody 6; PE-AB6
binding result [1]: no binding (tested: 1 ug (printed 'lug'))

binding result [5]: binds
binding result [6]: binds
B4: AB1 (antibody, V domains shown)
VH: DVQLQESGPDLVKPSQSLSLTCTVTGYSITSAYSWHWIRQFPGNKLEWMGYIHYSGSTNYNPSLKSRISITRDTSKNQFFLQLNSVTTEDTATYYCARSLWFYAMDYWGQGTSVTVSS
VL: DVQITQSPSYLAASPGETITINCRASKSISKYLAWYQEKPGKTNKLLIYSGSTLQSGIPSRFSGSGSGTDFTLTISSLEPEDFAMYYCQQHNEYPWTFGGGTKLEIK
notes: Mouse hybridoma monoclonal; also called antibody 1; PU-conjugated AB1
binding result [1]: no binding (tested: 1 ug (printed 'lug'))

B5: AB2 (antibody, V domains shown)
VH: B4 VH
VL: DIQMNQSPSSLSASLGDTITITCHASQNINVWLNWYQQKPGNIPKLLIYKASNLHTGVPSRFSGSGSGTGFTLTISSLQPEDIATYYCQQGQSYPLTFGGGTKLEIK
notes: Mouse hybridoma monoclonal; also called antibody 2; PE-AB2
binding result [1]: no binding (tested: 1 ug (printed 'lug'))

binding result [2]: binds
binding result [3]: binds
binding result [4]: binds
B6: AB4 (antibody, V domains shown)
VH: B4 VH with N84S
VL: B4 VL with N22K, Q55H
notes: Mouse hybridoma monoclonal; also called antibody 4; PE-AB4
binding result [1]: no binding (tested: 1 ug (printed 'lug'))
